The values below come from patent publication US20260242478A1 (published 2026).

Where no end group is shown, it is not given here.

One test has as its target T1, PSMA Fab (006 PSMA Fab) (biotinylated (site not given)).
T1 construct: also called Anti-PSMA Fab; anti-PSMA Fab
The test is described as follows: clonal phage ELISA; biotinylated PSMA Fab on neutravidin plate, blocking buffer alone; anti-M13 HRP detection.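 Further: crude clonal phage supernatants added without washing to wells pretreated with blocking buffer with or without PSMA antigen, short incubation, then washed before detecting bound phage.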 For orientation: In an ELISA, binding on a coated surface is turned into a signal by an enzyme label.

In test [1] the target is T2, 006 PSMA Fab.
T2 construct: also called Anti-PSMA Fab
As to the kind of experiment: phage binding ELISA; biotinylated PSMA Fab on neutravidin plate pre-incubated with PSMA antigen as competitor, clonal phage supernatant, anti-M13 HRP detection.
Experimental: (§1) Clonal phage were harvested as crude supernatants and screened via standard ELISAs. […] Prior to the addition of clonal phage. wells were incubated with blocking buffer and PSMA antigen or blocking buffer alone. Without washing or aspirating, clonal phage supernatants were then added to the wells and incubated for a short time. Wells were then washed followed by detection of bound phage using a horse radish conjugated anti-M13 antibody.

Test [2] deals with T2, 006 PSMA Fab. The test is described as follows: phage binding ELISA; biotinylated PSMA Fab on neutravidin plate, clonal phage supernatant, anti-M13 HRP detection; blocking buffer alone.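 Further: before phage were added, wells were preincubated with blocking buffer either containing PSMA antigen or without it, and phage were then added with no wash in between.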
Experimental: as §1
The target in test [3] is T3, PSMA Fab (biotinylated (site not stated)).
T3 construct: also called Anti-PSMA Fab; 006 PSMA Fab
The test is described as follows: clonal phage ELISA; PSMA Fab wells pre-incubated with PSMA antigen as competitor; anti-M13-HRP detection.

Test [4] addresses T3, PSMA Fab. As to the kind of experiment: clonal phage ELISA; biotinylated PSMA Fab on neutravidin plate; bound phage detected with anti-M13-HRP.
Experimental: as §1

Experimental for PSMA Fab (006 PSMA Fab): as §1

B1: Phage-2691 (peptide)
peptide: IVKWCTPPWMCERP
modifications: cysteine pairing not given here; also: displayed on bacteriophage as fusion to pIII, fusion and linker not given here
notes: Tested as clonal phage supernatant; also called Peptide-180 library clone
For B1, in the test with PSMA Fab (006 PSMA Fab), the “Phage binding ELISA signal, Anti-PSMA Fab” value is 0.834.

B2: Phage-2688 (peptide)
peptide: EAHLCKPLWMCEFG
modifications: cysteine pairing not given here; also: displayed on bacteriophage as fusion to pIII, fusion and linker not given here
notes: as for B1
In the case of B2, in the test with PSMA Fab (006 PSMA Fab), the “Phage binding ELISA signal, Anti-PSMA Fab” value came out at 0.84. Turning to EEMWCIPVWMCEHQ [Phage-2696], the “Phage binding ELISA signal, Anti-PSMA Fab with PSMA antigen” value in the test with 006 PSMA Fab [1] was determined as 0.0935. Besides, in the test with 006 PSMA Fab [2], the “Phage binding ELISA signal, Anti-PSMA Fab” value was 0.829.

B3: Phage-2694 (peptide)
peptide: GEKWCTPLWMCEWY
modifications: cysteine pairing not given here; also: displayed on bacteriophage as fusion to pIII, fusion and linker not given here
notes: as for B1
B3: the “Phage binding ELISA signal, Anti-PSMA Fab” value with PSMA Fab (006 PSMA Fab) was determined as 0.832. In the case of TPKWCTPPWMCQHG [Phage-2623], in the test with PSMA Fab [3], the “Phage binding ELISA signal, Anti-PSMA Fab with PSMA antigen” value came to 0.0728. Further, in the test with PSMA Fab [4], the “Phage binding ELISA signal, Anti-PSMA Fab” value is 0.994.

B4: Phage-2687 (peptide)
peptide: VHYWCIPAWMCNKS
modifications: cysteine pairing not given here; also: displayed on bacteriophage as fusion to pIII, fusion and linker not given here
notes: as for B1
In the case of B4, the “Phage binding ELISA signal, Anti-PSMA Fab” value with PSMA Fab (006 PSMA Fab) was 0.841. As for PETRCIPSWMCSGM [Phage-2625], the “Phage binding ELISA signal, Anti-PSMA Fab with PSMA antigen” value with PSMA Fab [3] turned out to be 0.0912. Besides, the “Phage binding ELISA signal, Anti-PSMA Fab” value with PSMA Fab [4] worked out at 0.989.

B5: Phage-2682 (peptide)
peptide: DVKWCIPSWMCQDV
modifications: cysteine pairing not given here; also: displayed on bacteriophage as fusion to pIII, fusion and linker not given here
notes: as for B1
With B5, in the test with PSMA Fab (006 PSMA Fab), the “Phage binding ELISA signal, Anti-PSMA Fab” value stood at 0.859.

As for IEKWCTPPWMCESS [Phage-2700], the “Phage binding ELISA signal, Anti-PSMA Fab with PSMA antigen” value with 006 PSMA Fab [1] worked out at 0.104. Also, the “Phage binding ELISA signal, Anti-PSMA Fab” value with 006 PSMA Fab [2] stood at 0.824.

Regarding WEKWCTPSGMCDAR [Phage-2627], the “Phage binding ELISA signal, Anti-PSMA Fab with PSMA antigen” value in the test with PSMA Fab [3] was 0.106. The “Phage binding ELISA signal, Anti-PSMA Fab” value with PSMA Fab [4] was determined as 0.982.

B6: Phage-2695 (peptide)
peptide: HWRMCVPTWMCHLD
modifications: cysteine pairing not given here; also: displayed on bacteriophage as fusion to pIII
Regarding B6, the “Phage binding ELISA signal, Anti-PSMA Fab with PSMA antigen” value with 006 PSMA Fab [1] is 0.15. Besides, in the test with 006 PSMA Fab [2], the “Phage binding ELISA signal, Anti-PSMA Fab” value was determined as 0.83. For the molecule MTQWCIPEWMCSEE [Phage-2624], the “Phage binding ELISA signal, Anti-PSMA Fab with PSMA antigen” value with PSMA Fab [3] was 0.0648. Besides, the “Phage binding ELISA signal, Anti-PSMA Fab” value with PSMA Fab [4] stood at 0.99. As for VVPRCTPPWMCLVS [Phage-2629], the “Phage binding ELISA signal, Anti-PSMA Fab with PSMA antigen” value with PSMA Fab [3] turned out to be 0.0785. Further, the “Phage binding ELISA signal, Anti-PSMA Fab” value in the test with PSMA Fab [4] was determined as 0.976.

For the molecule VEMLCKPAWMCANQ (cysteine pairing not given here; also: displayed on phage as pIII fusion) [Phage-2626], the “Phage binding ELISA signal, Anti-PSMA Fab with PSMA antigen” value with PSMA Fab [3] was 0.0829. Moreover, the “Phage binding ELISA signal, Anti-PSMA Fab” value in the test with PSMA Fab [4] was 0.986.

B7: Phage-2684 (peptide)
peptide: SEAWCIPSWMCRGD
modifications: cysteine pairing not given here; also: fused to phage pIII (clonal phage display)
notes: as for B1
As to B7, the “Phage binding ELISA signal, Anti-PSMA Fab” value with PSMA Fab (006 PSMA Fab) stood at 0.857.

B8: Phage-2690 (peptide)
peptide: LVKWCTPTWMCVGM
modifications: cysteine pairing not given here; also: displayed on bacteriophage as fusion to pIII, fusion and linker not given here
notes: as for B1
Regarding B8, in the test with PSMA Fab (006 PSMA Fab), the “Phage binding ELISA signal, Anti-PSMA Fab” value turned out to be 0.837.

LNNWCTPLWMCQMF [Phage-2628]: in the test with PSMA Fab [3], the “Phage binding ELISA signal, Anti-PSMA Fab with PSMA antigen” value came to 0.201. Also, the “Phage binding ELISA signal, Anti-PSMA Fab” value with PSMA Fab [4] was 0.979. For VTKLCIPEWMCASD (cysteine pairing not given here; also: displayed on phage as pIII fusion) [Phage-2630], the “Phage binding ELISA signal, Anti-PSMA Fab with PSMA antigen” value with PSMA Fab [3] came out at 0.0961. Also, the “Phage binding ELISA signal, Anti-PSMA Fab” value with PSMA Fab [4] turned out to be 0.975.

B9: Phage-2685 (peptide)
peptide: PMKLCSPPWMCFYD
modifications: cysteine pairing not given here; also: displayed on bacteriophage as fusion to pIII, fusion and linker not given here
notes: as for B1
Consider B9, for which the “Phage binding ELISA signal, Anti-PSMA Fab” value in the test with PSMA Fab (006 PSMA Fab) came out at 0.85. For GSHWCEPLWMCSAF [Phage-2699], in the test with 006 PSMA Fab [1], the “Phage binding ELISA signal, Anti-PSMA Fab with PSMA antigen” value stood at 0.0853. The “Phage binding ELISA signal, Anti-PSMA Fab” value in the test with 006 PSMA Fab [2] came out at 0.824.

B10: Phage-2686 (peptide)
peptide: QNIRCVPPWMCENL
modifications: cysteine pairing not given here; also: displayed on bacteriophage as fusion to pIII, fusion and linker not given here
notes: as for B1
As to B10, the “Phage binding ELISA signal, Anti-PSMA Fab” value with PSMA Fab (006 PSMA Fab) was 0.844.

B11: Phage-2680 (peptide)
peptide: DMNWCSPPWMCFGF
modifications: cysteine pairing not given here; also: displayed on bacteriophage as fusion to pIII, fusion and linker not given here
notes: as for B1
As for B11, in the test with PSMA Fab (006 PSMA Fab), the “Phage binding ELISA signal, Anti-PSMA Fab” value was determined as 0.873.

On to FVKWCTPSWMCESQ [Phage-2697], for which, in the test with 006 PSMA Fab [1], the “Phage binding ELISA signal, Anti-PSMA Fab with PSMA antigen” value was found to be 0.0785. For the same molecule, in the test with 006 PSMA Fab [2], the “Phage binding ELISA signal, Anti-PSMA Fab” value turned out to be 0.828. For DNMLCRPSWMCEGL [Phage-2701] the same measures were 0.0762 and 0.816.

B12: Phage-2683 (peptide)
peptide: EYAWCIPEWMCGWI
modifications: cysteine pairing not given here; also: displayed on bacteriophage as fusion to pIII, fusion and linker not given here
notes: as for B1
Regarding B12, the “Phage binding ELISA signal, Anti-PSMA Fab” value with PSMA Fab (006 PSMA Fab) worked out at 0.858. In the case of VMSWCVPAWMCETP [Phage-2631], the “Phage binding ELISA signal, Anti-PSMA Fab with PSMA antigen” value with PSMA Fab [3] was found to be 0.0614. In the test with PSMA Fab [4], the “Phage binding ELISA signal, Anti-PSMA Fab” value is 0.973.

B13: Phage-2692 (peptide)
peptide: MEKWCIPQWMCEQF
modifications: cysteine pairing not given here; also: displayed on bacteriophage as fusion to pIII, fusion and linker not given here
notes: as for B1
Regarding B13, the “Phage binding ELISA signal, Anti-PSMA Fab” value in the test with PSMA Fab (006 PSMA Fab) came out at 0.834. THHWCIPAWMCEQD [Phage-2633]: the “Phage binding ELISA signal, Anti-PSMA Fab with PSMA antigen” value in the test with PSMA Fab [3] was found to be 0.0809. In the test with PSMA Fab [4], the “Phage binding ELISA signal, Anti-PSMA Fab” value is 0.967.

B14: Phage-2681 (peptide)
peptide: GEKWCTPPWMCMFQ
modifications: cysteine pairing not given here; also: displayed on bacteriophage as fusion to pIII, fusion and linker not given here
notes: as for B1
In the case of B14, the “Phage binding ELISA signal, Anti-PSMA Fab” value with PSMA Fab (006 PSMA Fab) was 0.861.

B15: Phage-2689 (peptide)
peptide: IKPLCSPPWMCSMY
modifications: cysteine pairing not given here; also: displayed on bacteriophage as fusion to pIII, fusion and linker not given here
notes: as for B1
B15: the “Phage binding ELISA signal, Anti-PSMA Fab” value in the test with PSMA Fab (006 PSMA Fab) came to 0.839.

B16: Phage-2693 (peptide)
peptide: MGNWCTPSWMCEGL
modifications: cysteine pairing not given here; also: displayed on bacteriophage as fusion to pIII, fusion and linker not given here
notes: as for B1
In the case of B16, the “Phage binding ELISA signal, Anti-PSMA Fab” value with PSMA Fab (006 PSMA Fab) came out at 0.833.

Regarding DNKMCIPVWMCERF [Phage-2698], the “Phage binding ELISA signal, Anti-PSMA Fab with PSMA antigen” value with 006 PSMA Fab [1] was 0.0685. Besides, the “Phage binding ELISA signal, Anti-PSMA Fab” value with 006 PSMA Fab [2] was 0.824. On to AEKWCIPEWMCEQL [Phage-2632], for which the “Phage binding ELISA signal, Anti-PSMA Fab with PSMA antigen” value with PSMA Fab [3] amounted to 0.0717. The “Phage binding ELISA signal, Anti-PSMA Fab” value with PSMA Fab [4] amounted to 0.972.
